We go through 1 molecule from paper PMC5934765.

The target of this assay is α-synuclein (AS) expressed in non-mitotic SH-SY5Y cells, P37840. Description: proximity ligation. Conditions: remark: other sources report otherwise.

B1: SERCA2 in SH-SY5Y cells, P16615 1-1042 (enzyme)
chain: MENAHTKTVEEVLGHFGVNESTGLSLEQVKKLKERWGSNELPAEEGKTLLELVIEQFEDLLVRILLLAACISFVLAWFEEGEETITAFVEPFVILLILVANAIVGVWQERNAENAIEALKEYEPEMGKVYRQDRKSVQRIKAKDIVPGDIVEIAVGDKVPADIRLTSIKSTTLRVDQSILTGESVSVIKHTDPVPDPRAVNQDKKNMLFSGTNIAAGKAMGVVVATGVNTEIGKIRDEMVATEQERTPLQQKLDEFGEQLSKVISLICIAVWIINIGHFNDPVHGGSWIRGAIYYFKIAVALAVAAIPEGLPAVITTCLALGTRRMAKKNAIVRSLPSVETLGCTSVICSDKTGTLTTNQMSVCRMFILDRVEGDTCSLNEFTITGSTYAPIGEVHKDDKPVNCHQYDGLVELATICALCNDSALDYNEAKGVYEKVGEATETALTCLVEKMNVFDTELKGLSKIERANACNSVIKQLMKKEFTLEFSRDRKSMSVYCTPNKPSRTSMSKMFVKGAPEGVIDRCTHIRVGSTKVPMTSGVKQKIMSVIREWGSGSDTLRCLALATHDNPLRREEMHLEDSANFIKYETNLTFVGCVGMLDPPRIEVASSVKLCRQAGIRVIMITGDNKGTAVAICRRIGIFGQDEDVTSKAFTGREFDELNPSAQRDACLNARCFARVEPSHKSKIVEFLQSFDEITAMTGDGVNDAPALKKAEIGIAMGSGTAVAKTASEMVLADDNFSTIVAAVEEGRAIYNNMKQFIRYLISSNVGEVVCIFLTAALGFPEALIPVQLLWVNLVTDGLPATALGFNPPDLDIMNKPPRNPKEPLISGWLFFRYLAIGCYVGAATVGAAAWWFIAADGGPRVSFYQLSHFLQCKEDNPDFEGVDCAIFESPYPMTMALSVLVTIEMCNALNSLSENQSLLRMPPWENIWLVGSICLSMSLHFLILYVEPLPLIFQITPLNVTQWLMVLKISLPVILMDETLKFVARNYLEPGKECVQPATKSCSFSACTDGISWPFVLLIMPLVIWVYSTDTNFSDMFWS
On to B1, for which the reduction of the PLA signal by 0.5 μM CPA was determined as 50%.
